Test: soluble on expression in E. coli; label from the status in PepcDB or PDB records

Row | Sequence | soluble on expression in E. coli
1 | MNPNPNVKYPIEGNQNVHFIKNTITKANILVGDYSYYDAKDGETFEDRVLHHYEFLGDRLIIGKFCCIASGVTFIMNGANHRMDGFSAYPFNIFGNGWEKYTPNLSDLPYKGDTVIGNDVWIGMDATIMPGIKIGDGAIIAAKSVVTRDVAPYTIVGGNPANKIRERFSNAIIEELLQIQWWHFDIEKITENIGAIVQGNIEPLRKLKRE | not soluble
2 | MNPSLENLQLYPFQKLTKLFEDLVPRDSLPTPIGLHIGEPRHSTPEFIRQELINSLEGLAHYPTVLGTDRLRASIATWLTQRYHLSSIDPDTEVIPVNGSREALFSFAQAVIDTDHKAIQPAVVCQNPFYQIYEGAALLAGATPYFLNQLPENNFSADTAQLPDTVWERTQLVYICSPNNPTGKVLTLDEWKHLFDLSDRYGFVIAADECYSEIYFDEGHPPLGALEAAEKLGRSGFPRLVVFSSLSKRSNVPGMRSGFVAGDATILRKFLLYRTYHGSAMNPAVQAASTVAWSDEQHVAENRKLYYEKFTGAMHILGDTLPVSMPDAGFYLWLRTPVSGIEFSRRLYREGNVTVLPGSYLAREAHGMDPGEDFVRIALVAPVVECMEAMERIRDIARKF | not soluble
3 | MNPSPSIAGLSDIEALERVPLEQRDLPSSTYELLQRSARRHGQRIALSCLLHGSAAEEPLRISYAELFARVTQTANALHRLGLESHQAVSFLLPNLPQTHYVIWGGEAAGIVNAINPLLEPEHIAELIRASNTRVLVTLAPFPGTDLWQKVAGLRAQLPELYAIVVVDPANLLPAPQREALKAQRGPLPEGVLDFDTLIADCPADRLESGRAIHPDDVASYFHTGGTTGTPKLAPHSHFNEVAMAEIMGLNADYGVDDVLLCGLPLFHVNGVMVTGLAPFHRGAQVLLAGPQGYRNPTLIQDFWKLVERYRVTSFSGVPTIYAALLQVPSDGRDLSSLRFALCGAAPMPVELIRQFEARTGLKVIEGYGLTEGTCGTSCNPRGGERRPGSIGLRLPYCQVKVAVLDGEGNYLRDAAPNEVGNLCLKGPTVFKGYLQQDRNRDIWIGDGWFNTGDLGRIDEDGYIWLTGRSKDLIIRGGHNIDPQMIEEALHRHPAVALAAAVGKPDAKAGELPVAYIQLKPGASASEEELLEHASRHVPERAAVPKDIWLIESMPVTAVGKTFKPALRLDAIRRVLEEESRRIAEDIRVEVVADERHGQLAHLHVPALDERRQAALEELLGGYALNYRL | not soluble
4 | MNPTNYDPRIGQPAQSRPQVSLSMGRRIVQMPTGLPRSYQDESHNEPVGWDEPSGVGGSSGAGGQQSDKPTGLRHFSTKVCEKVKEKGLTNYNEVADELVADYFQNNLIKQIDVVKQEYDMKNIRRRVYDALNVLLAMNIITKSKKDIRWIGLPASASQEISRLEEEKSRREASISSKKQALEEMVLQIVSYKNLVERNRKNEHKNGRPENDTVLHLPFLIINTDKEANVECSVSSDKSEFLFSFDKKFEIHDDFEILKKLNLACSLETTNPTAEEVKTAKSFLPTLHQHYVDEIIANRKKVEAEKEEKRKQQQLIADQMSMNLSQAQYVEPTSSLAQMSYSSRFNRQLQEHLINDGSEDRSAAAGIMERDYDMDKNVNQGSASRGPMYNTYSPQKIRAQVNTPLQVPPVTKRYYVQKTQGPMKHDMTPVVRTVNRPYSTVPPDRRLSTGATSVNSGPVKYYVPQGHQPMHQPVGQRYRVRPQQPQMSHMGQPHQVQQRVVYPAGSISGHQLQPGQRIVTQRIVAPGGPHPPGTIVRKVIRKIVVNNPKQSPAQQVIQKKMMEQDMCTFERKTEQPMTSAQAAALIQHPQPEEYDYFQ | not soluble
5 | MNQAIQFPDREEWDENKKCVCFPALVNGMQLTCAISGESLAYRFTGDTPEQWLASFRQHRWDLEEEAENLIQEQSEDDQGWVWLP | not soluble
6 | MNQHLLGNPKLTVTHVNEVKAGINHIVVDSVQYGNQEMIMEKDGTVEMRDGEKLYINIFRPNKDGKFPVVMSADTYGKDNKPKITNMGALWPTLGTIPTSSFTPEESPDPGFWVPNDYVVVKVALRGSDKSKGVLSPWSKREAEDYYEVIEWAANQSWSNGNIGTNGVSYLAVTQWWVASLNPPHLKAMIPWEGLNDMYREVAFHGGIPDTGFYRFWTQGIFARWTDNPNIEDLIQAQQEHPLFDDFWKQRQVPLSQIKTPLLTCASWSTQGLHNRGSFEGFKQAASEEKWLYVHGRKEWESYYARENLERQKSFFDFYLKEENNDWKDTPHVIYEVRDQFYKGEFKSASAFPLPNAEYTPLYLNAENHTLNHAKISSAHVAQYDSEDKQQDVSFKYTFDKDTELVGNMNLKLWVSTKDSDDMDLFAGIKKLDRRGNEVNFPDFNHIENGQVATGWLRVSHRELDQEKSSIAQPWHKHETELKLSQDEIVPVEIELLPSGTLFKQGETLEVVVKGSEIVIGNSTPGMKTRYEHEETVNKGMHMIYTGGKYDSQLIIPIVN | soluble
7 | MNQHNTRLIRLPEVLHRTGYGKAWIYHLINQNRFPSPVKIGARSVAFIESEVDEWIQLTIENSRKHVA | soluble
8 | MNQLNWKDVTPSFEQYEDILKSASSLPKKKFVELQPRLLATVERFKKIKGLTRVLVINCADNTVYRKFICDVVTDGLEPTIMTESLDAKLLFDRYSVDLKGDVVVEAGLLSKAN | not soluble
9 | MNQWRVIHNKSYEGAMNMAIDEAIFTAYKKGHNKPTLRFYTWEPACLSIGYFQKLEDEIDLDKCRCMNIDYTRRITGGRAVLHDNELTYSIIIGEDNPLIDKSINLSYRYISEGLVKGLNLSGIETDNLNRGERISRENLSAACFNAHASYEVTINNKKVIGSAQSRKDGVLLQHGSIILDFDVEKLFKLIKTKTPELKERAMKFTAKKASGIENEIGRKIDIDILQKNIVKGLAEQFNVEFVEGDLTDYEKQLVKELYEKYKNEEYN | not soluble
10 | MNRNDAYHTLISEICALSLISEPERFYESANFKISDVDFTLHYQDRDEGRAILIYGDMGALPARNRDSALLALMDINFHMFSGAHSPAFSWNAQTGRVLLMGSIGLERATAEGVLLLMKSFADLAREWREHGFMGPVGAAGAPVNMPASQATTRDTPASSGRFQ | not soluble
11 | MNRRDFLKTAGLTGIALGLPGCARSLPFGRDVFPDFGDDARPYLGLATSLREEHDYEARVEGTIPAGLRGTLYRNGPALFDRGGMRKRTLLDGDGMVQAFRFGDRGIRYANRFVRTRKFVEEEAAGRFLHPTWSTQAPGGIWTNVWPTERLLSQAGITVFPWRGRLYAFDESSFPYELDPDTLATVGETTFGLPRDLTTYSAHGKFDPVTGEWLHFGIRYGPRTFVHLTTFNADGTLRRHRALELPRAIYMHDWFVTERHVVFHLHPVEIAYWPFLLGIRSMAESLRWRPERGTILMVAERDGEAPPRLVETEACYLWHTFNAWEERGKITADFVGYRNPDHFISDDPVITAVMLGRRGTYSYPGEVMRYRIDPARGTAAREVLHQGSCEWPRIDERLRCRPHRTGYMLRCLPGEFFWSIVMGLDPVTGRTDEYSFGRGVYCTEPVFAPRPDTLAGGPGWLLVELYDSRTRTSSLAILDADRIADGPLALVRLTHHVPFSYHGWWQPASLEHHHHHH | not soluble
12 | MNRRQFLGSAAAVSLASAASFARAHGHADYHHHHDMQPAAASAYTAVRQTAAHCLDAGQVCLTHCLSLLTQGDTSMSDCAVAVRQMLALCGAVHDLAAQNSPLTRDAAKVCLEACKQCAKACKEHSAHHAECKACYESCLDCIKECEKLAALEHHHHHH | soluble
13 | MNRWQRAWRHLCSTGWQARRQFPAAQLKRLERQIAESERAHRGQLRFVVESALDWRAAWRGMSARERALQWFGELRVWDTEDNTGVLVYLLLAERRIEIVADRGIHRLAPAGEWAGICADMQRAFAAGAHVEGLESGLRRIHALLLAHAPRNGEPFVNELPDQVVVRLEHHHHHH | not soluble
14 | MNSLLAELNRLGVAHATTEDVFIFVDRLFQHFSFLFQAEESGPRRLELVASVFEHLTVECVNDILDACSHPDVNVAETSNTCRPCPSPVPSAPKTVSGAQTSCATPRAPVTLEHHHHHH | not soluble
15 | MNSVITQKVSSGVTLYADTKTGGFMNRTILVPIDISDSELTQRVISHVEAEAKIDDAEVHFLTVIPSLPYYASLGLAYSAELPAMDDLKAEAKSQLEEIIKKFKLPTDRVHVHVEEGSPKDRILELAKKIPAHMIIIASHRPDITTYLLGSNAAAVVRHAECSVLVVR | not soluble
16 | MNTDEYYMRLAMEEAKKAEQIGEVPIGAVIVQDGRVIARAHNLRETEQRAIAHAEILAIDEACRATGSWRLERATLYVTLEPCAMCAGAIVLSRIERVVFGAFDPKGGCAGTLMNLLQESRFNHQVKVVSGVLADECGSLLSQFFRRLREQKRNVGGSANENSVD | not soluble
